# Assay results taken from paper doi:10.1101/324103 (bioRxiv, 2018).
# B1: ammonium transporter AmtB from Escherichia coli (natural protein)
# chain: APAVADKADNAFMMICTALVLFMTIPGIALFYGGLIRGKNVLSMLTQVTVTFALVCILWVVYGYSLAFGEGNNFFGNINWLMLKNIELTAVMGSIYQYIHVAFQGSFACITVGLIVGALAERIRFSAVLIFVVVWLTLSYIPIAHMVWGGGLLASHGALDFAGGTVVHINAAIAGLVGAYLIGKRVGFGKEAFKPHNLPMVFTGTAILYIGWFGFNAGSAGTANEIAALAFVNTVVATAAAILGWIFGEWALRGKPSLLGACSGAIAGLVGVTPACGYIGVGGALIIGVVAGLAGLWGVTMLKRLLRVDDPCDVFGVHGVCGIVGCIMTGIFAASSLGGVGFAEGVTMGHQLLVQLESIAITIVWSGVVAFIGYKLADLTVGLRV
# Target: the molecule itself
# Assay: SEC-MALS + AUC
protein,measurement,value
B1,stoichiometry N,3
